Reference: patent US20260022186A1 (UNIVERSITY OF CHICAGO, published 2026)
Changes are numbered by the printed parent chain.

B1: 1789 Fab (Fab, V domains shown)
VH: EVQLVESGGGLVQPGGSLRLSCAASGFNVSYSSIHWVRQAPGKGLEWVASISSSSGYTYYADSVKGRFTISADTSKNTAYLQMNSLRAEDTAVYYCARNYWGWYPFYYFAFDYWGQGTLVTV
VL: DIQMTQSPSSLSASVGDRVTITCRASQSVSSAVAWYQQKPGKAPKLLIYSASSLYSGVPSRFSGSRSGTDFTLTISSLQPEDFATYYCQQGWDYPITFGQGTKVEIKR
B2: 1789 IgG (antibody, V domains shown)
VH: EVQLVESGGGLVQPGGSLRLSCAASGFNVSYSSIHWVRQAPGKGLEWVASISSSSGYTYYADSVKGRFTISADTSKNTAYLQMNSLRAEDTAVYYCARNYWGWYPFYYFAFDYWGQGTLVTVSS
VL: B1 VL
B3: 1789 AM32 Fab (Fab, V domains shown)
VH: B1 VH with S50R, S52R, S53G, S54N, S55E, Y57D
VL: B1 VL
notes: also called Fab32
B4: 1789 AM42 Fab (Fab, V domains shown)
VH: B1 VH with S50K, S52R, S53G, S54G, S55H, G56Q, Y57D, Y59H
VL: B1 VL
B5: 1789 AM39 Fab (Fab, V domains shown)
VH: B1 VH with S52R, S53G, S54A, S55G, G56S, Y57D, Y59R
VL: B1 VL

How the values were obtained:
[1] = biological target: T1, Full-length human NT5E (recombinant, secreted) (human); experiment: cell-based or functional assay
T1 chain: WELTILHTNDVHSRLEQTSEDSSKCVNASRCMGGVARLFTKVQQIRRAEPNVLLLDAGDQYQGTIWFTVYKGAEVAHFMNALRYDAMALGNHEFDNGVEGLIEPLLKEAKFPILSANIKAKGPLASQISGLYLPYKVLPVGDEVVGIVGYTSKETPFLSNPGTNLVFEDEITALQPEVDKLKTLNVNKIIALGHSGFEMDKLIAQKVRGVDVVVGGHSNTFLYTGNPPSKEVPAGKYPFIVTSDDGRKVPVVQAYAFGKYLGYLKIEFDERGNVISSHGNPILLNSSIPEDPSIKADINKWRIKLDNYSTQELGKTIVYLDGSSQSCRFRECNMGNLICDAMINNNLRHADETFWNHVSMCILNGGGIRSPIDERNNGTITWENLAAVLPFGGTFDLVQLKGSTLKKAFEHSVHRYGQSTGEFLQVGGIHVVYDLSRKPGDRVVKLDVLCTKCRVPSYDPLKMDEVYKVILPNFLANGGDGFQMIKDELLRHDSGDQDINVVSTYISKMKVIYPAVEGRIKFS

[2] = biological target: hNT5EDF (substrate binding knock-out variant of human NT5E) (human); experiment: cell-based or functional assay
[3] = biological target: T2, hNT5EFF (F417A/F500A mutant of hNT5E) (human, UniProt P21589 27-549); experiment: cell-based or functional assay
T2 sequence (looked up): T1 chain with A350T, T353M, F391A, F474A

[4] = biological target: T1, Full-length human NT5E (recombinant, …); experiment: SPR, NT5E on NTA chip via His-tag, no ATP
[5] = biological target: T1, Full-length human NT5E (recombinant, …); experiment: SPR, NT5E on NTA chip via His-tag, 1 mM ATP
[6] = biological target: T1, Full-length human NT5E (recombinant, …); experiment: protein ELISA, immobilised biotinylated NT5E, 1 mM ATP
[7] = biological target: T3, Full-length murine NT5E (recombinant, secreted) (murine); experiment: SPR, NT5E on NTA chip via His-tag, 1 mM ATP; SPR, Fab, 1 mM ATP
T3 chain: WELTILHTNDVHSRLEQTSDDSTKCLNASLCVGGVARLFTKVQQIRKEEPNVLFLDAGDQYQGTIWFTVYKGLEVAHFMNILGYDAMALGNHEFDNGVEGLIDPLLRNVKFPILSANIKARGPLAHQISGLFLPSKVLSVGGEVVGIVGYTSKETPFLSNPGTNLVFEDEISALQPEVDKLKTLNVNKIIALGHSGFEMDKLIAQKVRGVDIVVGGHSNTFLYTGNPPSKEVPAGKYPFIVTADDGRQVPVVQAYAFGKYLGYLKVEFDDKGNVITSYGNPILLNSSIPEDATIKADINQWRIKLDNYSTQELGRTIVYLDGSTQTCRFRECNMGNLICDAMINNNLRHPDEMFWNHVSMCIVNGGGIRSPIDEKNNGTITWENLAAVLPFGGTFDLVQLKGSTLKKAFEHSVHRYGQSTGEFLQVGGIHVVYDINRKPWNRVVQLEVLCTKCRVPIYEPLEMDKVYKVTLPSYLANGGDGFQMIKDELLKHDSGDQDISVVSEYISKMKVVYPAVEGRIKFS

[8] = biological target: T3, Full-length murine NT5E (recombinant, …); experiment: protein ELISA, immobilised biotinylated NT5E, 1 mM ATP; protein ELISA, Fab, 1 mM ATP (EC50ATP)
[9] = biological target: T3, Full-length murine NT5E (recombinant, …); experiment: protein ELISA, immobilised biotinylated NT5E, 1 mM ATP
[10] = biological target: T1, Full-length human NT5E (recombinant, …); experiment: protein ELISA, immobilised biotinylated NT5E, no ATP (apo)
[11] = biological target: T1, Full-length human NT5E (recombinant, …); experiment: SPR, no ATP
[12] = biological target: T3, Full-length murine NT5E (recombinant, …); experiment: SPR, no ATP
[13] = biological target: T1, Full-length human NT5E (recombinant, …); experiment: SPR, 1 mM ATP
[14] = biological target: T3, Full-length murine NT5E (recombinant, …); experiment: SPR, 1 mM ATP
[15] = biological target: T3, Full-length murine NT5E (recombinant, …); experiment: SPR, no ATP; footnote *: data generated poor fits

Binder	EC50 [6]	Kd [11]	koff [11]	kon [11]	Kd [12]	koff [12]	kon [12]	Kd [13]	koff [13]	kon [13]	Kd [14]	koff [14]	kon [14]	also measured
B1	37 nM													TM of NT5E by differential scanning fluorimetry with 1789 Fab, 1 mM ATP [1]: 66 ° C.; TM of NT5E by differential scanning fluorimetry with 1789 Fab, No ATP [1]: 48 ° C.; TM of NT5E by differential scanning fluorimetry with 1789 Fab, 1 mM ATP [2]: 46 ° C.; TM of NT5E by differential scanning fluorimetry with 1789 Fab, No ATP [2]: 48 ° C.; TM of NT5E by differential scanning fluorimetry with 1789 Fab, 1 mM ATP [3]: 46 ° C.; TM of NT5E by differential scanning fluorimetry with 1789 Fab, No ATP [3]: 47 ° C.; Kd [4]: 760 nM; koff [4]: 0.044 s⁻¹; kon [4]: 57000 M⁻¹ s⁻¹; Kd [5]: 42 nM; koff [5]: 0.0073 s⁻¹; kon [5]: 170000 M⁻¹ s⁻¹; Kd [7]: 160 nM; koff [7]: 0.014 s⁻¹; kon [7]: 85000 M⁻¹ s⁻¹; EC50 [8]: 132 nM
B2	0.86 nM													EC50 [9]: 1.14 nM; EC50 [10]: 2.14 nM
B3		86 nM	0.0091 s⁻¹	110000 M⁻¹ s⁻¹	150 nM	0.011 s⁻¹	78000 M⁻¹ s⁻¹	15 nM	0.0042 s⁻¹	270000 M⁻¹ s⁻¹	15 nM	0.0028 s⁻¹	190000 M⁻¹ s⁻¹	
B4		38 nM	0.0067 s⁻¹	180000 M⁻¹ s⁻¹	63 nM	0.012 s⁻¹	190000 M⁻¹ s⁻¹	11 nM	0.0036 s⁻¹	320000 M⁻¹ s⁻¹	12 nM	0.0029 s⁻¹	250000 M⁻¹ s⁻¹	
B5		35 nM	0.0099 s⁻¹	280000 M⁻¹ s⁻¹		0.013 s⁻¹	140000 M⁻¹ s⁻¹	7.9 nM	0.0039 s⁻¹	490000 M⁻¹ s⁻¹	12 nM	0.0035 s⁻¹	290000 M⁻¹ s⁻¹	Kd [15]: 99 nM
